Laboratory results reported in publication PMC9519731, “The soluble form of CD160 acts as a tumor mediator of immune escape in melanoma” (Cancer Immunology, Immunotherapy : CII, 2022).

Biological target: the molecule itself
Assay: immunoprecipitation, non-reducing SDS-PAGE and Western blot; culture supernatants of confluent melanoma cell lines immunoprecipitated with H3 mAb, SDS-10% PAGE under non-reducing condition, blot with HRP-coupled H3 mAb

B1: soluble form of CD160 (sCD160) released by melanoma cell lines (natural protein, UniProt O95971 25-159, looked up)
chain: GCINITSSASQEGTRLNLICTVWHKKEEAEGFVVFLCKDRSGDCSPETSLKQLRLKRDPGIDGVGEISSQLMFTISQVTPLHSGTYQCCARSQKSGIRLQGHFFSILFTETGNYTVTGLKQRQHLEFSHNEGTLS
notes: soluble form of CD160, derived from the CD160-GPI isoform, released by human melanoma cell lines; recovered as a 55-kDa species called dimeric sCD160; also called secreted sCD160; sCD160 produced by WM1361; source: endogenous, culture supernatant of melanoma cell lines (WM1361, COLO829, SKMEL5)
B1 was tested, and the “stoichiometry N” value was 2.
